Source: the DeepSol protein solubility set

assay: soluble on expression in E. coli; label from the status in PepcDB or PDB records

| Sequence | soluble on expression in E. coli |
| --- | --- |
| MAEVPHHNIPAVDMLNATSRLQLEAQELRNNKPNWGSYFRSQMIQEDDYNFITSFENAKSKEERDQVLAANNANGQAAKTMANLITQVAKDQNVRYVLTLFDDMLQEDKSRVELFHSAAARQKRTVWSQYLGILQRQDNFIVNQMSSIIAKLACFGTTRMEGQDLQYYFSFLKEQLKNSTTNDYMNTTARCLQMMLRHDEYRHEFVDSDGVQTLVTALNGKTNFQLQYQLIFAVWCLTFNADIARKAPSLGLIQALGDILSESTKEKVIRIILASFVNILSKVDEREVKREAALQMVQCKTLKTLELMDAKKYDDPDLEDDVKFLTEELTLSVHDLSSYDEYYSEVRSGRLQWSPVHKSEKFWRENASKFNDKQFEVVKILIKLLESSHDPLILCVASHDIGEYVRHYPRGKTVVEQYQGKAAVMRLLTAEDPNVRYHALLAVQKLMVHNWEYLGKQLDSDVQTDTVAVK | not soluble |
| MAEWNRAKRKRKTIEIQYTGLASNSTLKVTKVTGKHLESMGIPGKFGYEVYPEEAVYLMETGSATISTSSGRDLSLLEAFSILEAMSVPMSKYEAYKHVKRTGLVVLRPRKPTIDFERLRHVEPKIRQKFAEKSFEMLVNRHTVPEERVPNPDSFPSFENRNGQISMKMKVLHTSPALVNFLPLEMLESIQTSTILQNLKPPTPNRPPCRPPSYWPFVDHHVTNWQEFRFQAEQARQETVLRRLKKLRPPSHAELRRERITVENVDFHVFSPASFSHRLPARPLFSLICYSATGPPLKISELAELENVVFAMEEAGKVNFVAMSGASIDLNNYLC | not soluble |
| MAFEATKREWCELYTFFRLLTEGKVTLGTAKAKKGEIDWPIAMIQREEHDGTRCYYIEKEMVRIKGENSEKFVPREDFGIVADLILQAVKSSSEDEVTSPDGVEEFLDEVAIFDLEAKTEDRTDFYIAFWHPEAPLSGFSVRSRLGAMNPLLDGGRAANLKLEQSGVKFATPTVNKINALPEAPNEVAERMLLIERLGGVLKYSDVADRVFRSNLLMIDLHFPRVLTEMVRIMHLDDITRISELTEVIKQMNPLKIKDELVNKHGFYEFKVKQFLMALALGMRPAKIYTGQDSAVEGILLMDGSGEVLCYHKSEKPVMEDFLFLNTRLEKGSLDKDKYGFLERENGTYYFKLNAKIGLVKR | not soluble |
| MAFICPEEIEAYAEEHSSELHPILEELVEFTYKNTDLPQMMVGRAEGNFLKMLVEISGAKRVLEIGTFTGFSALMMAQGLPEDGKLTTIEVNPEYAQMAKSFIERAPWGKKIEVIVGDARKVLEEFKKESFDFIFIDADKSSYPYYYEKCLELLKKGRLMAIDNALWEGKVLEPDDNRSKAIARMNEMIKEDPRVEKVLLTVRDGIFLVRKI | soluble |
| MAFVLDASTAVAWCFDEHHPAADRTLELAKVSEPRAPAILWFELRNAALMGIRRGRVKAEAADGVLARIERIRISIAPLPPAADPIFALAQRHRLTFYDAAYLELAQRERIGLATLDAALVGA | not soluble |
| MAFWQSKTLTEMTSQEWESLCDGCGKCCLNKLIDDETEELYYTNAACLLLDHQTTSCQHYSDRFRYVPQCTVITAQNVHELTWLPDSCAYRRLAAGRALPSWHPLLTGSKDAMHLAGMSIQGKVVDERRVKDIEDHIVLWPLKDLD | soluble |
| MAFYNSIPLIGKHLKSESRAKKYTSEEFKRLEREYRDHIGLPENSSFSSDAFDKLVSSRVDDFRAFPKTNLPGGLLFHDKLKEANTTEGDNIRDVLSKTVLAPTEKFKTAQKNFTESTSTFKELTKLIPSKFRAQDLVGTMKELTDDARKAIIEQQAHEIQMLKEKLDPQKEGQAGNYVSDFKKALGLKDNDEVKKVTEGLIKELEETHKKQLGEFDKSTSDSLNQLHKASASESSEYLFLANLYENNKEMRQTLEKLYAKERQRKGLPPESTTVQVGISENKIDLNGIKLKDIPVIKSITGREIHQQPDGSFAIQMPMINPFYYQDPRQNVKTDMMLIAQAIKASGYDSIEMNCNFPNSEKVAMERGRQAFAACIEAGFPVDKITINVNGKPMKADELFKEHPKTYQDIMSRASKISKDYEDIKAPKTSTAPVNTVVVKQEIAALRTKQQQEERAQTQPVDEQRHGVTPNNLEHHHHHH | not soluble |
| MAGDPMADQEANAEQPMPKAEQKKPEKKAVQVQKKEDDTSAWIKTEKPAKLPILMYHSISSGNSLRVPKKEFEAHMKWLHDNGYQTLTPKEASLMLTQDKKPSEKCVLITFDDGYTDNYQDAYPVLKKYGMKATIFMIGKSIGHKHHLTEEQMKEMAQHGISIESHTIDHLELNGLTPQQQQSEMADSKKLFDNMFHQQTTIISYPVGRYNEETLKAAEKTGYQMGVTTEPGAASRDQGMYALHRVRVSPGMSGSAFGAYIESMKLEHHHHHH | soluble |
| MAGDPMFKLKINNFQLGFKLVQWPVTNHLLKHFYVFPINNKGGLAIKRIISLALFKKRLNKDKINNCHVWEEELPDGSYDMGFNGNFNHMEKRKSGYVTQKQFSEFKDANNQRLIKIETTLAIQGEQINKLTQTVEKQGEQINQLVQVVLLQGASKLENFKWSKKHKDKSLMPAWIVWKIFWWKVLEHHHHHH | not soluble |
| MAGDPMGNSSTKGSADSKGDKLHVVTTFYPMYEFTKQIVKDKGDVDLLIPSSVEPHDWEPTPKDIANIQDADLFVYNSEYMETWVPSAEKSMGQGHAVFVNASKGIDLMEGSEEEHEEHDHGEHEHSHAMDPHVWLSPVLAQKEVKNITAQIVKQDPDNKEYYEKNSKEYIAKLQDLDKLYRTTAKKAEKKEFITQHTAFGYLAKEYGLKQVPIAGLSPDQEPSAASLAKLKTYAKEHNVKVIYFEEIASSKVADTLASEIGAKTEVLNTLEGLSKEEQDKGLGYIDIMKQNLDALKDSLLVKSLEHHHHHH | soluble |
| MAGDPMKSSQYPAQDLKRRVLAWAVKLKVNPRAVRVQDMHRKWGSCSSTGTITLASDLLDQEQRFQDYVIVHELLHLRFATHGRMFKALMSAYVPGWRAMEGMGQHRICRKYRSTRSTVLEHHHHHH | not soluble |
| MAGDPMPTLFDDPLHQLPRPPRRVAAGVVHLPNFLGLAEQKALVAQARDLAREVVGTPLAMVRPKLKSGQMSVHMLHLGKYWASNPYRYVDVVDGFPVPPLPDSFVDLAHRALLSAGSLSNSLQSWSEAYRAEAALVNYYSPDASMGMHQDANEESEAPVISLSIGDTGIFRLGGTLNRNKPWTDIPLMSGDLIVFGGANRQAFHGIPSIEANTAPAGCGLKEGRINITIRQLALAAALEHHHHHH | soluble |
| MAGDPMVMRLSKIYGKQIYTTKGKYVGYVDEVIIDIDEGRGEVVLLALPGERVGVPYERVTAVGDIILVEATTEKKRISQEGLEHHHHHH | not soluble |
| MAGDPNSMMIARTLSIFIGTLLLATCSIPTRLNIPTIAITDHPKYKLLLILIDGLRADALEHGQAPQLARLASDGVHARWMTPSYPALTLPNAYTLITGLRPDHHGIVHNTMEDPLLGAFESERQEAISNGRWWGGEPIWVSAEHAGIRSATFLWPGSEASIAGTRPSRWYAYNKHISADTQITQALRWLNERGPDAPRLVILRFEQVNTAGDNFGPDSPQYAAAVNMIDSAIGRLIDSLRQHGKLTDTDVIVVSDQGIAPIPGDHAVPLERIVQLSDVHVVSDGQVLGITPLPGHESKVEAMVLGAHATYDCWRKQALPTHWHYGTHPRIPNIVCQMHEGWNALSAAQITKRNPLQMGGSSGFDPMLPSMRAVFLANGPSFMPNLLLNPINNVDIYPLLARLLGIAMAPNDGNPRALLQALRTSNTANGYTYSKRNALHLEHHHHHH | not soluble |
| MAGENIIIDLNFAVSANPREVWDVLTDFDRMADFVSNLKESKVVSISEDKFTIFQNGTATYGPIRYPFESIREVRLIPYHKILTHLVSGNMHKLDGTTYLTDETGGTRVVHRTEAIPKVWIPAVVGKVFIEHEVREQFNEMRNEIIRRKRAALKKGHEKQDGRLEHHHHHH | soluble |
| MAGGGAGDPGLGAAAAPAPETREHLFKVLVIGELGVGKTSIIKRYVHQLFSQHYRATIGVDFALKVLNWDSRTLVRLQLWDIAGQERFGNMTRVYYKEAVGAFVVFDISRSSTFEAVLKWKSDLDSKVHLPNGSPIPAVLLANKCDQNKDSSQSPSQVDQFCKEHGFAGWFETSAKDNINIEEAARFLVEKILVNHQSFPNEENDVDKIKLDQETLRAENKSQCCLEHHHHHH | not soluble |
| MAGGLIRGKLIAIIGDEDTVTGFLLGGIGELNKNRKPNFLVVEKETSVTEIEETFRSFLNRDDIGIILINQFIAEMIRHAIDAHTISIPAVLEIPSKEHPYDATKDSILRRAKGMFTVDDLR | soluble |
| MAGHQISFAKEVQPIIETKCLSCHSCFDAPCQLKLESAESLLRGASQEPVYSSARTTEMKPTRLGIDELTVAGWRKRGFYSVLQSDREHAQSLLKNMITLGKQYPFPPNSKLPDSIKTGFARKNQCVSEEEFPGYAHDHPFEGMPFGTSGLTDREYSLLAGWLNQGAAVTDEPVTLTRDEEQTIRTWETLFNRDDKRGRLVARWLYEHLFLAYLYFPEAGDEPRFFELLRSSTPSGEAIIPVATVSPNSDPGGPFFYRLRPISGTIVHKRRISYPLDQMKLRRISELFFSEDWPVGDLPGYDYTERSNPFVTFAAIPARARYQFMLDEAEYFVRTFIHGPVCRGQIATDVIRDHFWTLFQSPESDLFITADTYRRQAIPLLGIPGQDDDLLDAGENWLRYLKRHNDYLALRQQHYVAQQPQGASLAHIWNGDGHNENALLTIFRHHNSASVVRGLAGAVPQTIWLMDYPLLEQTYYQLVVNFNVFGNVAHQVLTRLYFDLIRNGSEQNFVRLLPAGQRKTILNDWYQDLGKLKFGIVYEDIDDRSPSAERFVTENPKLELASHMLERFQSINTLSHDPLNRCEQGNCSRIDQPHWIQQADRALSGIAAQPAASLPGISLLPEVTFVRVQHGQNERTVYTLLRDRAHSNVAFMLGEELRYQPEKDRVTVYPGITGSYPNFMFDVPAAQVGEFVAKLSKAGKIKDFEQIVETWGIRRTHPQFWEILHDITAWQKQQQPLQAGIFDINRYENFLEHHHHHH | not soluble |
| MAGHSKWANIKHRKAAQDAQRGKIFTKLIRELVTAAKIGGGDVSANPRLRAAVDKALSNNMTRDTINRAIDRGVGGGDDTNMETKIYEGYGPGGTAVMVECLSDNANRTISQVRPSFTKCGGNLGTEGSVGYLFSKKGLILIAEADEDALTEAAIEAGADDIQPQDDGSFEIYTAWEDLGSVRDGIEAAGFKVQEAEVTMIPSTTVDLDIETAPKLLRLIDMLEDCDDVQNVYHNGEICDEVASQL | not soluble |
| MAGISIGVGSTDYTDLVNKMVNLEGAAKTNQLATLEKTTTTRLTALGQFKSAISAFQTALTALNSNAVFMARTAKSSNEDILKASATQSAVAGTYQIQVNSLATSSKIALQAIADPANAKFNSGTLNISVGDTKLPAITVDSSNNTLAGMRDAINQAGKEAGVSATIITDNSGSRLVLSSTKTGDGKDIKVEVSDDGSGGNTSLSQLAFDPATAPKLSDGAAAGYVTKAANGEITVDGLKRSIASNSVSDVIDGVSFDVKAVTEAGKPITLTVSRDDAGVKDNVKKFVEAYNTLTKFINEQTVVTKVGEDKNPVTGALLGDASVRALVNTMRSELIASNENGSVRNLAALGITTTKDGTLEIDEKKLDKAISADFEGVASYFTGDTGLAKRLGDKMKPYTDAQGILDQRTTTLQKTLSNVDTQKADLAKRLAALQEKLTTQFNLLSAMQDEMTKRQKSITDNLASLPYGSGKKT | not soluble |
| MAGQEDPVQREIHQDWANREYIEVITSSIKKIADFLNSFDMSCRSRLATLNEKLTALERRIEYIEARVTKGETLT | soluble |
